The first assay has as its target T1, amphyphisin SH3 (AMPH_HUMAN), P49418.
T1 chain: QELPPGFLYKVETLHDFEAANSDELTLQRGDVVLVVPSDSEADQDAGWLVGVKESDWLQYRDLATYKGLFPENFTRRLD
Kind of assay: SPOT array.
Molecule SLPLPKRPRRGAAP [O14746 231-244] showed a normalised SPOT signal, Boehringer light units (BLU); mean over the file's lines of this peptide of 5540.

On to SPSVPAKPPLAEFE [Q15742 478-492], for which the normalised SPOT signal, Boehringer light units (BLU); mean over the file's lines of this peptide was 47.9.

SLRKLKRPPPPPRR [Q9P206 440-453] displayed a normalised SPOT signal, Boehringer light units (BLU); mean over the file's lines of this peptide of 78.1.

For the molecule SPIKPKRPFVESNV [Q9ULS2 141-154], the normalised SPOT signal, Boehringer light units (BLU); mean over the file's lines of this peptide was found to be 120.

SLLDFIRPLKISSD [Q9UPM8 1026-1039] displayed a normalised SPOT signal, Boehringer light units (BLU); mean over the file's lines of this peptide of 219.

SNTPPPRPPKPSHL [Q8WWW8 303-317]: the normalised SPOT signal, Boehringer light units (BLU); mean over the file's lines of this peptide was 2120.

SLVLPSRPPIGLPP [Q9UHI4 161-175] displayed a normalised SPOT signal, Boehringer light units (BLU); mean over the file's lines of this peptide of 40.4.

On to SPGPPYRPPSQRLR [Q8WVQ2 69-83], for which the normalised SPOT signal, Boehringer light units (BLU); mean over the file's lines of this peptide was 547.

SPDKFKRPTPPPSP [Q16204 419-432] returned a normalised SPOT signal, Boehringer light units (BLU); mean over the file's lines of this peptide of 15.7.

In turn, SPKSPGRPWKSVSE [P01042 611-624] registered a normalised SPOT signal, Boehringer light units (BLU); mean over the file's lines of this peptide of 228.

On to SNPVPPRPPPPSLA [Q9UBP0 16-30], for which the normalised SPOT signal, Boehringer light units (BLU); mean over the file's lines of this peptide was found to be 143.

On to SMFFIRRPTLDINW [O94848 219-232], for which the normalised SPOT signal, Boehringer light units (BLU); mean over the file's lines of this peptide is 58.5.

As to SSELIERPSKKDGF [Q9H0X9 173-186], the normalised SPOT signal, Boehringer light units (BLU); mean over the file's lines of this peptide was found to be 120.

On to SLKRPKRPLFNFAL [Q96RW7 70-83], for which the normalised SPOT signal, Boehringer light units (BLU); mean over the file's lines of this peptide came out at 169.

Regarding SPDSLSRPRRTVFT [Q9P217 544-557], the normalised SPOT signal, Boehringer light units (BLU); mean over the file's lines of this peptide was 482.

SMGPPSKPPDEEHR [Q9NZ56 228-242] came in with a normalised SPOT signal, Boehringer light units (BLU); mean over the file's lines of this peptide of 49.6.

SPGFPARPGRGRPY [Q9UQ90 30-43] came in with a normalised SPOT signal, Boehringer light units (BLU); mean over the file's lines of this peptide of 568.

Turning to SPGVLRRPRRRPAA [Q9Y469 13-26], the normalised SPOT signal, Boehringer light units (BLU); mean over the file's lines of this peptide amounted to 2430.

Take SLRVPKRPIINTPV [Q9HCU4 2269-2282]: the normalised SPOT signal, Boehringer light units (BLU); mean over the file's lines of this peptide was found to be 53.7.

Regarding SPAPPHKPPNTREN [P51816 884-898], the normalised SPOT signal, Boehringer light units (BLU); mean over the file's lines of this peptide came to 48.2.

With SLPRPRRPLPTQQQ [Q9P0U4 231-244], the normalised SPOT signal, Boehringer light units (BLU); mean over the file's lines of this peptide was found to be 509.

SLPSPSKPPIQQPT [Q9Y6V0 260-274] returned a normalised SPOT signal, Boehringer light units (BLU); mean over the file's lines of this peptide of 55.1.

As to SPARPRRPHASRDG [Q9H8S7 107-120], the normalised SPOT signal, Boehringer light units (BLU); mean over the file's lines of this peptide is 13800.

For SLMTPRRPLSTSEK [Q9H5L8 147-160], the normalised SPOT signal, Boehringer light units (BLU); mean over the file's lines of this peptide was 70.

Take SAVGPNRPPTVSQP [Q9UFD8 131-145]: the normalised SPOT signal, Boehringer light units (BLU); mean over the file's lines of this peptide amounted to 51.4.

The molecule SSGSPDRPGRRGRR [Q9BXQ6 174-187] displayed a normalised SPOT signal, Boehringer light units (BLU); mean over the file's lines of this peptide of 3220.

The molecule SPPELKRPRLDENK [Q13112 538-551] yielded a normalised SPOT signal, Boehringer light units (BLU); mean over the file's lines of this peptide of 51.

On to SPEAPRRPKQRPAP [O00294 24-37], for which the normalised SPOT signal, Boehringer light units (BLU); mean over the file's lines of this peptide came to 62.1.

Another assay concerns the target endophilin SH3 (SH3G2_HUMAN), Q99962. Kind of assay: SPOT array.
SLPLPKRPRRGAAP [O14746 231-244]: the normalised SPOT signal, Boehringer light units (BLU); mean over the file's lines of this peptide was found to be 9620.

SPSVPAKPPLAEFE [Q15742 478-492] returned a normalised SPOT signal, Boehringer light units (BLU); mean over the file's lines of this peptide of 67.1.

Take SLRKLKRPPPPPRR [Q9P206 440-453]: the normalised SPOT signal, Boehringer light units (BLU); mean over the file's lines of this peptide is 199.

The molecule SPIKPKRPFVESNV [Q9ULS2 141-154] registered a normalised SPOT signal, Boehringer light units (BLU); mean over the file's lines of this peptide of 2110.

In turn, SLLDFIRPLKISSD [Q9UPM8 1026-1039] showed a normalised SPOT signal, Boehringer light units (BLU); mean over the file's lines of this peptide of 0.

Take SNTPPPRPPKPSHL [Q8WWW8 303-317]: the normalised SPOT signal, Boehringer light units (BLU); mean over the file's lines of this peptide was found to be 18000.

As for SLVLPSRPPIGLPP [Q9UHI4 161-175], the normalised SPOT signal, Boehringer light units (BLU); mean over the file's lines of this peptide turned out to be 72.4.

The molecule SPGPPYRPPSQRLR [Q8WVQ2 69-83] yielded a normalised SPOT signal, Boehringer light units (BLU); mean over the file's lines of this peptide of 5840.

For the molecule SPDKFKRPTPPPSP [Q16204 419-432], the normalised SPOT signal, Boehringer light units (BLU); mean over the file's lines of this peptide stood at 35.9.

The molecule SPKSPGRPWKSVSE [P01042 611-624] yielded a normalised SPOT signal, Boehringer light units (BLU); mean over the file's lines of this peptide of 117.

As to SNPVPPRPPPPSLA [Q9UBP0 16-30], the normalised SPOT signal, Boehringer light units (BLU); mean over the file's lines of this peptide was found to be 11600.

The molecule SMFFIRRPTLDINW [O94848 219-232] yielded a normalised SPOT signal, Boehringer light units (BLU); mean over the file's lines of this peptide of 744.

SSELIERPSKKDGF [Q9H0X9 173-186]: the normalised SPOT signal, Boehringer light units (BLU); mean over the file's lines of this peptide worked out at 71.5.

Consider SLKRPKRPLFNFAL [Q96RW7 70-83], for which the normalised SPOT signal, Boehringer light units (BLU); mean over the file's lines of this peptide turned out to be 2170.

In turn, SPDSLSRPRRTVFT [Q9P217 544-557] returned a normalised SPOT signal, Boehringer light units (BLU); mean over the file's lines of this peptide of 90.9.

In turn, SMGPPSKPPDEEHR [Q9NZ56 228-242] showed a normalised SPOT signal, Boehringer light units (BLU); mean over the file's lines of this peptide of 44.5.

As to SPGFPARPGRGRPY [Q9UQ90 30-43], the normalised SPOT signal, Boehringer light units (BLU); mean over the file's lines of this peptide is 754.

As for SPGVLRRPRRRPAA [Q9Y469 13-26], the normalised SPOT signal, Boehringer light units (BLU); mean over the file's lines of this peptide stood at 190.

Molecule SLRVPKRPIINTPV [Q9HCU4 2269-2282] yielded a normalised SPOT signal, Boehringer light units (BLU); mean over the file's lines of this peptide of 2480.

Molecule SPAPPHKPPNTREN [P51816 884-898] came in with a normalised SPOT signal, Boehringer light units (BLU); mean over the file's lines of this peptide of 78.5.

The molecule SLPRPRRPLPTQQQ [Q9P0U4 231-244] came in with a normalised SPOT signal, Boehringer light units (BLU); mean over the file's lines of this peptide of 3100.

SLPSPSKPPIQQPT [Q9Y6V0 260-274] came in with a normalised SPOT signal, Boehringer light units (BLU); mean over the file's lines of this peptide of 94.9.

SPARPRRPHASRDG [Q9H8S7 107-120]: the normalised SPOT signal, Boehringer light units (BLU); mean over the file's lines of this peptide turned out to be 8710.

SLMTPRRPLSTSEK [Q9H5L8 147-160] gave a normalised SPOT signal, Boehringer light units (BLU); mean over the file's lines of this peptide of 1480.

In turn, SAVGPNRPPTVSQP [Q9UFD8 131-145] yielded a normalised SPOT signal, Boehringer light units (BLU); mean over the file's lines of this peptide of 969.

For the molecule SSGSPDRPGRRGRR [Q9BXQ6 174-187], the normalised SPOT signal, Boehringer light units (BLU); mean over the file's lines of this peptide was 150.

Consider SPPELKRPRLDENK [Q13112 538-551], for which the normalised SPOT signal, Boehringer light units (BLU); mean over the file's lines of this peptide came out at 77.2.

For SPEAPRRPKQRPAP [O00294 24-37], the normalised SPOT signal, Boehringer light units (BLU); mean over the file's lines of this peptide worked out at 319.

The values above are taken from publication PMC314469, “Protein Interaction Networks by Proteome Peptide Scanning” (PLoS Biology, 2004).
